Read-outs that look alike come from different tables or passages of the source.
Tests used:
Karyopherin-β2 (Kapβ2) = target: T1, Karyopherin-β2 (Kapβ2) (human, UniProt Q92973-2 1-890); experiment: ITC
T1 sequence: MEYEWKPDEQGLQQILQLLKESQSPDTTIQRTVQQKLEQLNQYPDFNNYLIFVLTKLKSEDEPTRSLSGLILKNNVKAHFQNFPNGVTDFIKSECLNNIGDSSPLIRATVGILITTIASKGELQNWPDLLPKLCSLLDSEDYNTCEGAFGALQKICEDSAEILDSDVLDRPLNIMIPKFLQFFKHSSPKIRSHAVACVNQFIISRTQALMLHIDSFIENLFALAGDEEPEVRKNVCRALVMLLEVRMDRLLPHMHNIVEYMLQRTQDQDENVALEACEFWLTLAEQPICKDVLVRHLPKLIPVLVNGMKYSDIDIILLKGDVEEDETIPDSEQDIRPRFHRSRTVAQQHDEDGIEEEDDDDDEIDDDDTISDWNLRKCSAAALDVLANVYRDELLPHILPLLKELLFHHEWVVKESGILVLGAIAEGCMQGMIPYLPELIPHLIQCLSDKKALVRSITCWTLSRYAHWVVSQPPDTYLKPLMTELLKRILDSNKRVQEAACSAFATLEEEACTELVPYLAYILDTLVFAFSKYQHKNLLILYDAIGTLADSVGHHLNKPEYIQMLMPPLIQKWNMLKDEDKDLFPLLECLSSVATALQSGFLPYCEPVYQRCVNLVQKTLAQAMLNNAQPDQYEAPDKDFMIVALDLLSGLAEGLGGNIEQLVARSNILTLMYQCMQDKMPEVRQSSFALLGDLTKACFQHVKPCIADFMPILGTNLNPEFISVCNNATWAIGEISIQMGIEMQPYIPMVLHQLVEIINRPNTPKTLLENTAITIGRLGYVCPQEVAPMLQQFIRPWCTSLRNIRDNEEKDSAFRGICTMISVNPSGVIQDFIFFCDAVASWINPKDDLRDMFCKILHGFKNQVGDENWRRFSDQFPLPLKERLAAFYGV

MBP-FUS [1] = target: T2, MBP-FUS (UniProt P35637 1-526); experiment: gel filtration co-elution
GST-CRM1 = GST-CRM1 (human, UniProt O14980 1-1071); experiment: pull-down
GST-CRM1, sequence (O14980 whole entry): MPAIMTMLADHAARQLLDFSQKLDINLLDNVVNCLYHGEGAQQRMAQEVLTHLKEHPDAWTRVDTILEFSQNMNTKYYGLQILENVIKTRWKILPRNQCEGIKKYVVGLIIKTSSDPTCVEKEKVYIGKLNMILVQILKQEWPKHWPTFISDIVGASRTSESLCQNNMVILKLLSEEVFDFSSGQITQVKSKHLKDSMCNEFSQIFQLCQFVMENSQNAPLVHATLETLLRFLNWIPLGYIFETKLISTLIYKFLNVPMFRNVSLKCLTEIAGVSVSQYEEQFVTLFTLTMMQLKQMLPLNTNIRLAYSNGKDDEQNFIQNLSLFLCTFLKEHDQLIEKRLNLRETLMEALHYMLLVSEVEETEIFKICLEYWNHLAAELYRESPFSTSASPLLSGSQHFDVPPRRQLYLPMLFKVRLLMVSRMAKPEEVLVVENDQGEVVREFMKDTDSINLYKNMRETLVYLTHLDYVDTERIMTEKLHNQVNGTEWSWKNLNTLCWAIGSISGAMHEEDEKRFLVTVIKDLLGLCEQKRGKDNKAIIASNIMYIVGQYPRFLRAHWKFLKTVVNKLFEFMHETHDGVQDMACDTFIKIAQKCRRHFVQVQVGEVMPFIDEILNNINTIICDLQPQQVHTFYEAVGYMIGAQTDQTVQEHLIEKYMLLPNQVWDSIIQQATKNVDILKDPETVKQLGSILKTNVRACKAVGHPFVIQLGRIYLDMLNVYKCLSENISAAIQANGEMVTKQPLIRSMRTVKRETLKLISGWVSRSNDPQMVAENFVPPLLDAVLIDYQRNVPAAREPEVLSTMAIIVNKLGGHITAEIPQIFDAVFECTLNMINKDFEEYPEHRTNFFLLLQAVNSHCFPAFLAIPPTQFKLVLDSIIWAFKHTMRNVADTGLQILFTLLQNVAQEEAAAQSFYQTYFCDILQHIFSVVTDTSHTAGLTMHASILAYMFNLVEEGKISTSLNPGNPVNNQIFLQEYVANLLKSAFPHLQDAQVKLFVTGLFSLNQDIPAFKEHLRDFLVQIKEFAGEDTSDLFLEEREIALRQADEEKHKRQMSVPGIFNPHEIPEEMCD

FUS(371–526) = target: T3, FUS(371–526) (UniProt P35637 371-526); experiment: crystal structure
T3 sequence (looked up): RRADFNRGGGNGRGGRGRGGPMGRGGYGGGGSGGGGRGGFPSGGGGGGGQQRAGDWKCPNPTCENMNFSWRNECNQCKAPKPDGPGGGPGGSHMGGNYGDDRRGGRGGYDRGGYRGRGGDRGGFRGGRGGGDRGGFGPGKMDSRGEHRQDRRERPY

[2] = target: T4, FUS (full-length), MBP removed with Tev protease (UniProt P35637 1-526); experiment: crystal structure
T4 sequence (looked up): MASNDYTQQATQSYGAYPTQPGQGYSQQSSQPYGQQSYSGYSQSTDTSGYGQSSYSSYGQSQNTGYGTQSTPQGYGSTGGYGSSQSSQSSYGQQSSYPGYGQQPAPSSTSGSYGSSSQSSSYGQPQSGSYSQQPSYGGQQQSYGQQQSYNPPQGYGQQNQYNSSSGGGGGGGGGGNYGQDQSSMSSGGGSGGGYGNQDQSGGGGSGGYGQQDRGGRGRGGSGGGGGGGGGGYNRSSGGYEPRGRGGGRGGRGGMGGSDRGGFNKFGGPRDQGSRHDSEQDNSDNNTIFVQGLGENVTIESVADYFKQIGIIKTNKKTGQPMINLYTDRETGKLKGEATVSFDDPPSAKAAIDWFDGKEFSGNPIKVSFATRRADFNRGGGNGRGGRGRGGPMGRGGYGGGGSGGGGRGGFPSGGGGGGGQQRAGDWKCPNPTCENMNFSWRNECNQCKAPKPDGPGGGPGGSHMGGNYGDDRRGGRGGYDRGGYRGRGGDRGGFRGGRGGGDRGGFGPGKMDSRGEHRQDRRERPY

FUS(456–526) = target: T5, FUS(456–526) (UniProt P35637 456-526); experiment: crystal structure
T5 sequence (looked up): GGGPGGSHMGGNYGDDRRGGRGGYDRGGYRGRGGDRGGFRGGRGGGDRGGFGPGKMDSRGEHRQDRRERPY

MBP-FUS [3] = target: T2, MBP-FUS; experiment: gel filtration co-elution; remark: listed apart in the source

B1: MBP-FUS(453–526) (domain or fragment, UniProt P35637 453-526, looked up)
chain: DGPGGGPGGSHMGGNYGDDRRGGRGGYDRGGYRGRGGDRGGFRGGRGGGDRGGFGPGKMDSRGEHRQDRRERPY
- binding result (Karyopherin-β2 (Kapβ2)): binds

Binder: AUUGAGGAGCAGCAGAGAAGUUGGAGUGAAGGCAGAGAGGGGUUAAGG (ssRNA) [prD (DNMT) RNA]
- binding result (MBP-FUS [1]): binds

B2: MBP-FUS(371–526) (domain or fragment, UniProt P35637 371-526, looked up)
chain: RRADFNRGGGNGRGGRGRGGPMGRGGYGGGGSGGGGRGGFPSGGGGGGGQQRAGDWKCPNPTCENMNFSWRNECNQCKAPKPDGPGGGPGGSHMGGNYGDDRRGGRGGYDRGGYRGRGGDRGGFRGGRGGGDRGGFGPGKMDSRGEHRQDRRERPY
- binding result (Karyopherin-β2 (Kapβ2)): binds

B3: MBP-FUS(NES) chimera (PY-NLS replaced with the NES from the NS2 protein of MVM virus) (other)
chain: MASNDYTQQATQSYGAYPTQPGQGYSQQSSQPYGQQSYSGYSQSTDTSGYGQSSYSSYGQSQNTGYGTQSTPQGYGSTGGYGSSQSSQSSYGQQSSYPGYGQQPAPSSTSGSYGSSSQSSSYGQPQSGSYSQQPSYGGQQQSYGQQQSYNPPQGYGQQNQYNSSSGGGGGGGGGGNYGQDQSSMSSGGGSGGGYGNQDQSGGGGSGGYGQQDRGGRGRGGSGGGGGGGGGGYNRSSGGYEPRGRGGGRGGRGGMGGSDRGGFNKFGGPRDQGSRHDSEQDNSDNNTIFVQGLGENVTIESVADYFKQIGIIKTNKKTGQPMINLYTDRETGKLKGEATVSFDDPPSAKAAIDWFDGKEFSGNPIKVSFATRRADFNRGGGNGRGGRGRGGPMGRGGYGGGGSGGGGRGGFPSGGGGGGGQQRAGDWKCPNPTCENMNFSWRNECNQCKAPKPDGPGGGPGGSHMGGNYGDDRRGGRGGYDRGGYRGRGGDRGGFRGGRGGYSTVDEMTKKFGTLTIH
- binding result (GST-CRM1): binds

B4: Kapβ2Δloop (residues 337–367 replaced with a GGSGGSG linker) (natural protein, human)
chain: MEYEWKPDEQGLQQILQLLKESQSPDTTIQRTVQQKLEQLNQYPDFNNYLIFVLTKLKSEDEPTRSLSGLILKNNVKAHFQNFPNGVTDFIKSECLNNIGDSSPLIRATVGILITTIASKGELQNWPDLLPKLCSLLDSEDYNTCEGAFGALQKICEDSAEILDSDVLDRPLNIMIPKFLQFFKHSSPKIRSHAVACVNQFIISRTQALMLHIDSFIENLFALAGDEEPEVRKNVCRALVMLLEVRMDRLLPHMHNIVEYMLQRTQDQDENVALEACEFWLTLAEQPICKDVLVRHLPKLIPVLVNGMKYSDIDIILLKGDVEEDETIPDSEQDIRGGSGGSGDTISDWNLRKCSAAALDVLANVYRDELLPHILPLLKELLFHHEWVVKESGILVLGAIAEGCMQGMIPYLPELIPHLIQCLSDKKALVRSITCWTLSRYAHWVVSQPPDTYLKPLMTELLKRILDSNKRVQEAACSAFATLEEEACTELVPYLAYILDTLVFAFSKYQHKNLLILYDAIGTLADSVGHHLNKPEYIQMLMPPLIQKWNMLKDEDKDLFPLLECLSSVATALQSGFLPYCEPVYQRCVNLVQKTLAQAMLNNAQPDQYEAPDKDFMIVALDLLSGLAEGLGGNIEQLVARSNILTLMYQCMQDKMPEVRQSSFALLGDLTKACFQHVKPCIADFMPILGTNLNPEFISVCNNATWAIGEISIQMGIEMQPYIPMVLHQLVEIINRPNTPKTLLENTAITIGRLGYVCPQEVAPMLQQFIRPWCTSLRNIRDNEEKDSAFRGICTMISVNPSGVIQDFIFFCDAVASWINPKDDLRDMFCKILHGFKNQVGDENWRRFSDQFPLPLKERLAAFYGV
- binding result (FUS(371–526)): binds
- binding result [2]: binds
- binding result (FUS(456–526)): binds

Binder: UUAGGGUUAGGGUUAGGGUUAGGG (structured_RNA) [TERRA RNA]
- binding result (MBP-FUS [3]): binds

Reference: article PMC6234985 (Cell, 2018)
